Laboratory results published in IntAct's records for PubMed 16432186.

B1: Beta-arrestin-1 (Homo sapiens), P49407-1 (parent)
chain: MGDKGTRVFKKASPNGKLTVYLGKRDFVDHIDLVDPVDGVVLVDPEYLKERRVYVTLTCAFRYGREDLDVLGLTFRKDLFVANVQSFPPAPEDKKPLTRLQERLIKKLGEHAYPFTFEIPPNLPCSVTLQPGPEDTGKACGVDYEVKAFCAENLEEKIHKRNSVRLVIRKVQYAPERPGPQPTAETTRQFLMSDKPLHLEASLDKEIYYHGEPISVNVHVTNNTNKTVKKIKISVRQYADICLFNTAQYKCPVAMEEADDTVAPSSTFCKVYTLTPFLANNREKRGLALDGKLKHEDTNLASSTLLREGANREILGIIVSYKVKVKLVVSRGGLLGDLASSDVAVELPFTLMHPKPKEEPPHREVPENETPVDTNLIELDTNDDDIVFEDFARQRLKGMKDDKEEEEDGTGSPQLNNR

Variants of: B1
Details: with src_human SRC

effect of a mutation on the interaction | Variant
disrupting interaction strength | MGDKGTRVFKKASPNGKLTVYLGKRDFVDHIDLVDPVDGVVLVDPEYLKERRVYVTLTCAFRYGREDLDVLGLTFRKDLFVANVQSFPPAPEDKKPLTRLQERLIKKLGEHAYPFTFEIPPNLPCSVTLQPGPEDTGKACGVDYEVKAFCAENLEEKIHKRNSVRLVIRKVQYAPERPGPQPTAETTRQFLMSDKPLHLEASLDKEIYYHGEPISVNVHVTNNTNKTVKKIKISVRQYADICLFNTAQYKCPVAMEEADDTVAPSSTFCKVYTLTPFLANNREKRGLALDGKLKHEDTNLASSTLLREGANREILGIIVSYKVKVKLVVSRGGLLGDLASSDVAVELPFTLMHPKPKEEPPHREVPENETPVDTNLIELDTNDDDIVFEDFARQRLKGMKDDKEEEEDGTGDPQLNNR [S412D]
